Results taken from paper doi:10.1101/2025.08.13.670122.
Like-named read-outs stand apart in the source and are kept apart here. One block for each substance: values may come before it.

Legend:
[1] = target: human Angiotensin II Type 1 receptor (human) (UniProt P30556)
[2] = target: human Angiotensin II Type 1 receptor (human) (UniProt P30556); test: radioligand binding
[3] = target: human Angiotensin II Type 1 receptor (human) (UniProt P30556); remark: listed apart in the source
[4] = target: human Angiotensin II Type 1 receptor (human) (UniProt P30556); remark: listed apart in the source
[5] = target: human Angiotensin II Type 1 receptor (human) (UniProt P30556); remark: listed apart in the source
[6] = target: human Angiotensin II Type 1 receptor (human) (UniProt P30556); remark: listed apart in the source
[7] = target: human Angiotensin II Type 1 receptor (human) (UniProt P30556); remark: listed apart in the source

human Angiotensin II Type 1 receptor (human), sequence (P30556 whole entry): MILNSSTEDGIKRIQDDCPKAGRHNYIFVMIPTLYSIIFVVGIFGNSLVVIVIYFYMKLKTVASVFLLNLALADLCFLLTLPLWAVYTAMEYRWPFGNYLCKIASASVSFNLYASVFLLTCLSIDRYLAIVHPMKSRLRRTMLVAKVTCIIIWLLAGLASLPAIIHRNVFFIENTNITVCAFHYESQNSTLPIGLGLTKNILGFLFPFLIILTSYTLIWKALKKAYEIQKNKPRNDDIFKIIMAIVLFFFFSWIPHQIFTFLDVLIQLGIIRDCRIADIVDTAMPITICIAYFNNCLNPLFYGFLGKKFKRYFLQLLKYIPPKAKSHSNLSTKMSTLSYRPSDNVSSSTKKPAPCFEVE

Substance: AngII analog 29c ((p-Cl)Phe at position 8) (peptide)
- Gαq activation (GABY BRET sensor, HEK293 cells expressing AT1R), EC50 [1]: 2.5 nM

Substance: AngII analog 22b ((m-NO2)Phe at position 8) (peptide)
- Gαq activation (GABY BRET sensor, HEK293 cells expressing AT1R), EC50 [1]: 4.4 nM

Substance: AngII analog 30c ((p-F)Phe at position 8) (peptide)
- Gαq activation (GABY BRET sensor, HEK293 cells expressing AT1R), EC50 [1]: 1.7 nM

Substance: AngII analog 20 (4ThzAla at position 8) (peptide)
- Gαq activation (GABY BRET sensor, HEK293 cells expressing AT1R), EC50 [3]: 14 nM

Substance: AngII analog 11 (Tyr(Me) at position 8) (peptide)
- Gαq activation (GABY BRET sensor, HEK293 cells expressing AT1R), EC50 [4]: 1.1 nM
- β-arrestin2 recruitment (BRET, HEK293 cells expressing AT1R), EC50 [4]: 0.36 nM

Substance: AngII analog 11 (Tyr(Me) at position 8) (from UniProt P01019)
- Ki [5]: 0.23 nM

Substance: AngII analog 24a ((o-OH)Phe at position 8) (peptide)
- Gαq activation (GABY BRET sensor, HEK293 cells expressing AT1R), EC50 [7]: 2.1 nM

Substance: AngII analog 14 (p-tBuPhe at position 8) (peptide)
- β-arrestin2 recruitment (BRET, HEK293 cells expressing AT1R), EC50 [4]: 26 nM

Substance: AngII analog 15 (Dip at position 8) (peptide)
- Gαq activation (GABY BRET sensor, HEK293 cells expressing AT1R), EC50 [4]: 7.9 nM

Substance: AngII analog 30a ((o-F)Phe at position 8) (peptide)
- Gαq activation (GABY BRET sensor, HEK293 cells expressing AT1R), EC50 [7]: 1 nM

The remaining lines, values ahead:

- Gαq activation (GABY BRET sensor, HEK293 cells expressing AT1R), EC50 [1]: 5.9 nM
Substance: AngII analog 23b ((m-CN)Phe at position 8) (peptide)

- Gαq activation (GABY BRET sensor, HEK293 cells expressing AT1R), EC50 [1]: 2.4 nM
Substance: AngII analog 30b ((m-F)Phe at position 8) (peptide)

- Gαq activation (GABY BRET sensor, HEK293 cells expressing AT1R), EC50 [1]: 1.9 nM
Substance: AngII analog 28b ((m-Br)Phe at position 8) (peptide)

- Gαq activation (GABY BRET sensor, HEK293 cells expressing AT1R), EC50 [1]: 1.5 nM
Substance: AngII analog 29b ((m-Cl)Phe at position 8) (peptide)

- Ki [2]: 6.6 nM
Substance: TRV027 (peptide)

- Gαq activation (GABY BRET sensor, HEK293 cells expressing AT1R), EC50 [1]: 4.5 nM
Substance: AngII analog 27b ((m-I)Phe at position 8) (peptide)

- Gαq activation (GABY BRET sensor, HEK293 cells expressing AT1R), EC50 [1]: 4.6 nM
Substance: AngII analog 24b ((m-OH)Phe at position 8) (peptide)

- Gαq activation (GABY BRET sensor, HEK293 cells expressing AT1R), EC50 [4]: > 10000 nM
Substance: AngII analog 16 (Ser(Bzl) at position 8) (peptide)

- Gαq activation (GABY BRET sensor, HEK293 cells expressing AT1R), EC50 [6]: > 10000 nM
- β-arrestin2 recruitment (BRET, HEK293 cells expressing AT1R), EC50 [6]: < 2.5 nM
Substance: AngII analog 23a ((o-CN)Phe at position 8) (peptide)

- Gαq activation (GABY BRET sensor, HEK293 cells expressing AT1R), EC50 [4]: > 10000 nM
- β-arrestin2 recruitment (BRET, HEK293 cells expressing AT1R), EC50 [4]: 2.5 nM
Substance: AngII analog 12 (Tyr(Bzl) at position 8) (peptide)

- β-arrestin2 recruitment (BRET, HEK293 cells expressing AT1R), EC50 [4]: 15 nM
Substance: AngII analog 13 (Bip at position 8) (peptide)
